This series can be described thus: soluble on expression in E. coli; label from the status in PepcDB or PDB records.
With “MGSDKIHHHHHHEDTTSSPEEDPLAPQNDDADLLLKPLIAKDPRTRGQRGPFAAMTGSYGRGGYGGSGGGAFGGFNGGYGQGGYGGGGDFGGGMGGGGYGGGGYGGGGDGGGGYGGYGGGGYGGMGGGPGGYGMGGYGGGGGGGGDFGGYGGGGMGGGGYGGGGDGGYGGGGFGGGGMGGYGGGMGGGGYGGGGMGGGGYGGGGDGGYGPSGGYGGGYGPGGGYGMGGGGGGGGCPNGECRGKK”, the “soluble on expression in E. coli” value is “not soluble”.

Take “GPGSMLSERACLHPGRALKCERFLAIFPQNVKEMLLQNPLFVQNSRVAERSIIRHNQFLLACYMTYLILRNDENAEGQALKYINFMPRNEGNFEQLISNMNGVLDGAAACQSAQAALSLQFGITQAEVRPLLQWSMAMIFSRMAPIDHRWTLQCAFKNTPFAPAFDIRGPDDDANMVKEPIAFLCPVIDMCNHSDHENVALMVPQRTDSSHESVICLRSLRDIDRGEELTMTYGGSPTELRVIWGMQRVL”: the “soluble on expression in E. coli” value was “not soluble”.

Consider “SLESEGRSPIFTHLVTSLKGLWTLRAFGRQPYFETLFHKALNLHTANGGAMFSLIYKKTLKLSSRVLDKISIGQLVSLLSNNLNKFDEGGGGAINKIQDFLQKQEYKTLEYNLTTTEVVMENVTAFWEEGFGELFEKAKQNNNNRKTSNGDDSLFFSNFSLLGTPVLKDINFKIERGQLLAVAGSTGAGKTSLLMMIMGELEPSEGKIKHSGRISFCSQFSWIMPGTIKENIIFGVSYDEYRYRSVIKACQLEEDISKFAEKDNIVLGEGGITLSGGQRARISLARAVYKDADLYLLDSPFGYLDVLTEKEIFESCVCKLMANKTRILVTSKMEHLKKADKILILHEGSSYFYGTFSELQNLQPDFSSKLMG”, for which the “soluble on expression in E. coli” value is “soluble”.

Turning to “MLVKDFMTRNPITIAPETSFSEALKLMKQNKIKRLIVMKNEKIVGIVTEKDLLYASPSKATTLNIWELHYLLSKLKIEEIMTKDVVTVNENTPIEDAARIMEEKDISGLPVVDDAGRLVGIITQTDIFKVFVEIFGTKREGTIRYTMEMPDKPGELLEVAKRIYEAGGNIISIATLFEEGKDSYLATLRVENIDHEKFVKSLDEIDVKLLYYHSN”, the “soluble on expression in E. coli” value is recorded as “soluble”.

“MGSDKIHHHHHHMAFTESDVYNNEAFFEQYMKRRYRENSPNEALEKPAFFQLISDVKGKRILDLGCGDAKFGEELLEKGCHSYTGIEGSELMYEKAKKQLENKNGAVHFLNLKDYTYPPSTFDLVTSRLALHYIEHLPIIFQNVYETLKTNGTFTFSVQHPIITSSFESLQTSGKRTSWLVDDYFKLGKRVEPWIDQEVIKYHRTTEEYFTLLQQAGFTITNLKEATPDQTYFQNAEEYERRLRIPLFLLFSCRK”: the “soluble on expression in E. coli” value is “not soluble”.

“NTKDEAYNVATQATYAVAEQQTGSGDVVAVDDNVQMSKVSTVTINVLGNDIIADGVSVEISAMSAPSKGTVKLLSDGSIQYTPAKRFKNQDSFS”: the “soluble on expression in E. coli” value is given as “not soluble”.

On to “MSSEEDKSVEQPQPPPPPPEEPGAPAPSPAAADKRPRGRPRKDGASPFQRARKKPRSRGKTAVEDEDSMDGLETTETETIVETAEIKEQSAEEDAEAEVDNSKQLIPTLQRSVSEESANSLVSVGVEAKISEQLCAFCYCGEKSSLGQGDLKQFRITPGFILPWRNQPSNKKDIDDNSNGTYEKMQNSAPRKQRGQRKERSPQQNIVSCVSVSTQTASDDQAGKLWDELSLVGLPDAIDIQALFDSTGTCWAHHRCVEWSLGVCQMEEPLLVNVDKAVVSGSTERCAFCKHLGATIKCCEEKCTQMYHYPCAAGAGTFQDFSHIFLLCPEHIDQAPERSKEDANCAVCDSPGDLLDQFFCTTCGQHYHGMCLDIAVTPLKRAGWQCPECKVCQNCKQSGEDSKMLVCDTCDKGYHTFCLQPVMKSVPTNGWKCKNCRICIECGTRSSSQWHHNCLICDNCYQQQDNLCPFCGKCYHPELQKDMLHCNMCKR”, for which the “soluble on expression in E. coli” value is reported as “not soluble”.

“MRDHRPTATDELIQASKLKQIQEHAKAILLINRQLQDILPKGLKTQVRAANVRGGNLVLEAASAALKMKVDYERLHILTQLRQNGFGHLISIEVRVNPELYRQSKITSEDARAANPRPPLSEHAAHVLLAIADQASDKVKKRLQSLARLAKANQKDD”: the “soluble on expression in E. coli” value was “not soluble”.

In the case of “SNRLDGKVAIITGGTLGIGLAIATKFVEEGAKVMITDRHSDVGEKAAKSVGTPDQIQFFQHDSSDEDGWTKLFDATEKAFGPVSTLVNNAGIAVNKSVEETTTAEWRKLLAVNLDGVFFGTRLGIQRMKNKGLGASIINMSSIEGFVGDPSLGAYNASKGAVRIMSKSAALDCALKDYDVRVNTVHPGYIKTPLVDDLPGAEEAMSQRTKTPMGHIGEPNDIAYICVYLASNESKFATGSEFVVDGGYTAQ”, the “soluble on expression in E. coli” value is on record as “soluble”.

Take “MGSDKIHHHHHHAELPAGTVIDKANLDKIKSDTFDGHTIASLLTDKLEWQIRNTGLKIPLGHAKPVQLDPKYIEATKKNAGKAQFDEKSREVTGWVAGIPFPEVSQNDPFAGDKLVWNFYYASPEGDVINNKATFLMISGDKGLESTQDWLFERYYMKGRISGDKPVLGDGSILSKTLFVATAPEDIKGVGTFTIRYDSPKLEDSWAYIKSARRTRRLSGGAWMDPVGGLDVLNDDIYVWNARPSWYPKVKLVGRRWILAISDAKLGYNASKKGTPEEWKTVDLSNPPYWNPVQTWQPREVWVIEGTPPAEHPYGKKVVYMDVNYPRVYMGEAYDKKGEFWKFINFHMTPSVGEDGTKYSSSIQGDIIDFKARHASIYLFRGYKLNEAKIKETDMSYSALESIAK”: the “soluble on expression in E. coli” value is “not soluble”.

Regarding “MSLSTCPAACHCPLEAPKCAPGVGLVRDGCGCCKVCAKQLNEDCSKTQPCDHTKGLECNFGASSTALKGICRAQSEGRPCEYNSRIYQNGESFQPNCKHQCTCIDGAVGCIPLCPQELSLPNLGCPNPRLVKVTGQCCEEWVCDEDSIKDPMEEGHHHHHH”, the “soluble on expression in E. coli” value is recorded as “not soluble”.

For “MSEIKLNYHKTHFLTSAPNIRSIPEDTGIEIAFAGRSNAGKSTALNALTNQKNLARTSKTPGRTQLINLFEVEPNCKLVDLPGYGYAAVPEQMKIQWQKSLGEYLQKRECLAGLVVLMDIRHPLKDLDQQMIEWAVSANLPVLLLLTKADKLSQSARSKQVKMVREAILPFQGDIQVEAFSAQNKIGIDKLAVKLDFWFSPLFAE”, the “soluble on expression in E. coli” value is listed as “not soluble”.

For the sequence “MGSDKIHHHHHHMRNQILKKATVSIMLLLCINVSVADTSTSVSCAESGSASAYSRSGNSVSYSSVNCSSNNEQNAMTPAGIAVSKSYSPEPYTSLVLSGAFNTEIKTSSENRVIISGDSNYVESVEVNSSDGELIIRRPGPGNDNLNVIVESISLQKLKISGAGSTNIYGDFPDGLSVRKSGAGSINIEGQASTLKLNLSGAGNTTARDFTVDNVEIDATGAGNIAVCAKKSVAGSLAGAVHFKVYCNPSQRSVNTRGVSRVSYR”, the “soluble on expression in E. coli” value is “not soluble”.

Consider “QVQLQQSGPELVKPGALVKISCKASGYTFTNYDINWVKQRPGQGLEWIGWIYPGDGSTMYNEKFKGKATLTADKSSSTAYMQLSSLTSENSSVYFCARLDGNYGGWFAYWGQGTSVTVSSAKTTPPSVYPLAPVCGDTTGSSVTLGCLVKGYFPEPVTVTWNSGSLSSGVHTFPAVLQSDLYTLSSSVTVPSSTWPSETVTCNVAHPASSTKVDKKIVP”, for which the “soluble on expression in E. coli” value is “soluble”.

Regarding “NEIKKILIMPTWRDWLNSTYAFDNSDYMKHYLSLINSPKLQALINEYDIEINFYPHYRSQMFFKSFLTDNKSDINYIELGDKTVQELLVEHDLLITDYSSVSFDFSYMKKPVIFYHFDVKKFFRKGILRSIKDTFIGDIAHTEKELISLIEDNIKNPKNMEYQNLSSIFDYTDHHNNQRVYHSILDLIQDNT”, the “soluble on expression in E. coli” value was “not soluble”.

Take “LNLSEKQVVKIGILQYVTHDALDAIEKGVEDGLAQEGYKGKKVKLTVLNAEADQSKIQAMSKQLVNHHNDILIGIATPSAQGLAASTKDTPIIMGAVSDPLGAKLVTNMKKPTTNVTGLSNVVPTKQTVQLIKDITPNIKRIGILYASSEDNSVSQVTEFTKYAQKAGLEVLKYSVPSTNEIKTSMSVMTKKVDAVFVPQDNTIASAFRTVIVAANQANIPVYSSVDTMVEQGSIASVAQSQYGLGLETAKQAIKVLRGKPVKDVPVKVIDTGKPSLNLKAAKHLGIKIPKKIMKQAEITVKVD”: the “soluble on expression in E. coli” value is on record as “not soluble”.

(Values after the DeepSol protein solubility set.)
